Consider two molecules from US20240327530A1 (ICHNOS SCIENCES, published 2024).

The target in assay [1] is T1, Human IL-1RAP, membrane-bound on human cells (HaCaT, dermal fibroblasts, neutrophils, PBMC, whole blood) (human, UniProt Q9NPH3 21-570).
T1 construct: Endogenous protein on cells
T1 sequence: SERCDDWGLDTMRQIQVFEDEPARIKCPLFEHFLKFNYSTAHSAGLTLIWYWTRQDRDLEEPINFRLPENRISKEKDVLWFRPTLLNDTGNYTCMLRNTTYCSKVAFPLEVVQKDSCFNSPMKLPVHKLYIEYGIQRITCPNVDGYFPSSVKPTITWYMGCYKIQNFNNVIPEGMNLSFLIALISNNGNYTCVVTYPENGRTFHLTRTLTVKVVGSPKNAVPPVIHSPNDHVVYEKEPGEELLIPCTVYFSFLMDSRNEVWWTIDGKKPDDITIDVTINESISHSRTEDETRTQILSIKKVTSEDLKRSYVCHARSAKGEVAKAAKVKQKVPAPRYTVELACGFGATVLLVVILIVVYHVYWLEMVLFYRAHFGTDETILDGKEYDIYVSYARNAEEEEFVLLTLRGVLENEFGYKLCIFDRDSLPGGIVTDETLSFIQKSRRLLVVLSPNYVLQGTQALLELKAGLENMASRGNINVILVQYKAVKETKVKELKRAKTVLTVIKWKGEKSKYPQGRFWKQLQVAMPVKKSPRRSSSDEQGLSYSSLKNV
Kind of assay: flow cytometry on human neutrophils, nonlinear sigmoidal regression. The procedure: In brief, cells were harvested, counted, and plated at 50,000 cells/well in a 96-well round-bottom plate. The plate was centrifuged at 350 g for 3 minutes and the cells were resuspended in 50 μl of FACS® buffer (PBS (1×)+2.5% FCS+2 mM EDTA+0.05% NaN₃) containing various concentrations (ranging from 50 to 0.00003 μg/ml) of either anti-human IL-1RAP_candidate_1 or Isotype control_5 antibodies. Stained cells were incubated for 30 minutes at 4° C., washed twice with FACS® buffer at 350 g for 3 min and resuspended in […] of a monoclonal anti-human IgG PE-Cyanine7 secondary antibody (Biolegend, 409316) diluted 1/200 in FACS® buffer. Cells were then washed twice and resuspended in 200 μl of FACS® buffer containing SYTOX® Green dead cell stain (THERMO FISHER […]®, S34860) and samples were acquired on a CYTOFLEX® instruments (Beckman Coulter). The cells were gated based on size on FSC vs SSC and analyzed for PE-Cyanine7-geometric mean (geomean) fluorescence intensity using FLOWJO® software. Finally, relative geomean fluorescence intensity was calculated by subtracting fluorescence of anti-human IL-1RAP_candidate_1 per fluorescence of Isotype control_5. As depicted in FIGS. 6A, 6B, 6C, 6D, and 6E, anti-human IL-1RAP_candidate_1 antibody recognizes membrane-bound IL-1RAP expressed on HaCaT cell line and all primary cells. Multiple independent experiments were performed using multiple donors. […]
For orientation: A flow cytometer gives signals particle by particle.

The target in assay [2] is T2, Recombinant mouse IL-1RAP-his (Sino Biologicals, catalog no. 52657-M08H) (mouse, UniProt Q61730 21-350).
T2 construct: Bought; not shown: His tag of the bought protein
T2 sequence: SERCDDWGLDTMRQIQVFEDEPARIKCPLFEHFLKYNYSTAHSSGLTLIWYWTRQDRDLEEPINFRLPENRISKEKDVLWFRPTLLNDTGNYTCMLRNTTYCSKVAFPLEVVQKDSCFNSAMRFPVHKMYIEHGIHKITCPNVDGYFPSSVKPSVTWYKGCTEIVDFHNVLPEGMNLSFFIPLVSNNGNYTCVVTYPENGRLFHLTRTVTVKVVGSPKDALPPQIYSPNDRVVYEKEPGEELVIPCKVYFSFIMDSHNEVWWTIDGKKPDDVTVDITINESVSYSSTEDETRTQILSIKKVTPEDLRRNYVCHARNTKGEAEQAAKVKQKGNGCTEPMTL
Briefly: SPR, mouse IgG2a LALA captured on anti-mouse IgG Fc CM5 chip, mouse IL-1RAP-his as analyte in a concentration series, 1:1 fit, one representative replicate. As for the experimental part: Anti-IL-1RAP-C3-A3 mouse IgG2a LALA was immobilized on a Series S CM5 sensor CHIP coupled with anti-mouse IgG Fc. Mouse IL-1RAP-his was injected over immobilized IgG2a LALA in concentration series in HBS-EP+ buffer. One representative replicate is presented. Plots are showing data expressed as number of resonance units (abbreviated RU; Y axis) vs. time (s, X axis). Dotted lines represent the measured data while solid lines represent simulated fits. KD: equilibrium dissociation constant; Ka: association constant; Kd: dissociation constant.
Surface plasmon resonance (SPR) was used to measure the binding affinities of mouse IgG2a LALA molecules for mouse IL-1RAP. Affinity was measured on a BIACORE™ T200 instrument (BIACORE™ GE […]®) at 25° C. and analyzed with the BIACORE™ T200 Evaluation Software (v3.1). Measurements were performed on Series S CM5 sensor chips (BIACORE™ T200, BIACORE™, GE […]®, catalog no. BR100530) coupled with anti-mouse IgG Fc (BIACORE™, GE […]®, catalog no. BR100838) using a commercial amine coupling kit (BIACORE™, GE […]®, catalog no. BR100050). SPR measurements were performed with commercially available recombinant mouse IL-1RAP-his (Sino Biologicals, catalog no. 52657-M08H). The affinity to mouse IL-1RAP was assessed by immobilizing anti-mouse IL-1RAP mouse IgG2a LALA molecule and using mouse IL-1RAP protein as analyte. Around 150 RU of mouse IgG2a LALA was captured on fc2 of a Series S CM5 sensor chip coupled with anti-mouse IgG Fc. Mouse IL-1RAP-his was injected in multi cycle kinetic at different concentrations ranging from 0.14 to 100 nM, in HBS-EP+ buffer (BIACORE™, GE […]®, catalog no. BR100669) at a flow rate of 30 μl/min for 3 min on fc1 and fc2 (fc1 being used as reference). Dissociation was monitored for 15 min. After each cycle, the surface was regenerated with 60 μl of regeneration solution provided with anti-mouse IgG Fc capture kit (BIACORE™ GE […]®, catalog no. BR100838). Experimental data were processed using the 1:1 Langmuir kinetic fitting model. Measurements included zero-concentration samples for referencing. […]

Assay [3] concerns the target T2, Recombinant mouse IL-1RAP-his (Sino …). Kind of assay: SPR, mouse IgG2a LALA captured by anti-mouse Fc, mouse IL-1RAP-his as analyte, 1:1 fit. As for the experimental part: Surface plasmon resonance (SPR) was used to measure the binding affinities of mouse IgG2a LALA molecules for mouse IL-1RAP. Affinity was measured on a BIACORE™ T200 instrument (BIACORE™ GE […]®) at 25° C. and analyzed with the BIACORE™ T200 Evaluation Software (v3.1). Measurements were performed on Series S CM5 sensor chips (BIACORE™ T200, BIACORE™, GE […]®, catalog no. BR100530) coupled with anti-mouse IgG Fc (BIACORE™, GE […]®, catalog no. BR100838) using a commercial amine coupling kit (BIACORE™, GE […]®, catalog no. BR100050). SPR measurements were performed with commercially available recombinant mouse IL-1RAP-his (Sino Biologicals, catalog no. 52657-M08H). The affinity to mouse IL-1RAP was assessed by immobilizing anti-mouse IL-1RAP mouse IgG2a LALA molecule and using mouse IL-1RAP protein as analyte. Around 150 RU of mouse IgG2a LALA was captured on fc2 of a Series S CM5 sensor chip coupled with anti-mouse IgG Fc. Mouse IL-1RAP-his was injected in multi cycle kinetic at different concentrations ranging from 0.14 to 100 nM, in HBS-EP+ buffer (BIACORE™, GE […]®, catalog no. BR100669) at a flow rate of 30 μl/min for 3 min on fc1 and fc2 (fc1 being used as reference). Dissociation was monitored for 15 min. After each cycle, the surface was regenerated with 60 μl of regeneration solution provided with anti-mouse IgG Fc capture kit (BIACORE™ GE […]®, catalog no. BR100838). Experimental data were processed using the 1:1 Langmuir kinetic fitting model. Measurements included zero-concentration samples for referencing. Chi², U- and residual values were used to evaluate the quality of a fit between the experimental data and individual binding models.
(In general: SPR reads the build-up and loss of mass on a sensor chip optically.)

B1: Anti-IL-1RAP-C8-RecC-ES-IgG1LALA (antibody, V domains shown)
VH: QVQLVQSGAEVKKPGSSVKVSCKASGSPAEPYAIQWVRQAPGQGLEWMGYIIPSLGGYDYAQKFQGRVTITADESTSTAYMELSSLRSEDTAVYYCARGQTLYESGRQFDIWGQGTLVTVSS
VL: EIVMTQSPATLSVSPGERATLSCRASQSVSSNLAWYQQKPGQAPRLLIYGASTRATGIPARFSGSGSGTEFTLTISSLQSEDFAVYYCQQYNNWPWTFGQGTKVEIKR
notes: also called ISB 880-C8-recC-ES
Usually Kd stands for the constant that tells how readily two partners part at equilibrium. For B1, binding in assay [1] was put at a Kd of 1.67 nM.

B2: Anti-IL-1RAP-C3-A3 mmIgG2a LALA (antibody, V domains shown)
VH: EVQLLESGGGLVQPGGSLRLSCAASGFIFSHYGMSWVRQAPGKGLEWVSAISYDGEGTLYADSVKGRFTISRDNSKNTLYLQMNSLRAEDTAVYYCARFRYYTAFDYWGQGTLVTVSS
VL: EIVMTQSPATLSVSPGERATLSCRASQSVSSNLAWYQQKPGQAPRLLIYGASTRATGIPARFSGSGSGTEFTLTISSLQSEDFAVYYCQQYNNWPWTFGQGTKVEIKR
notes: also called anti-IL-1RAP-C3-A3 mouse IgG2a LALA
For orientation: koff means a measure of how fast the partners let go of each other. As a reminder, the kon is the rate constant with which the complex forms. Take B2: in assay [2], the Kd amounted to 0.557 nM, the koff is 7.6e-05 s⁻¹ and the kon was 137000 M⁻¹ s⁻¹. In assay [3], the Kd was 0.545 nM, the off-rate constant (koff) was 7.46e-05 s⁻¹ and the kon came to 138000 M⁻¹ s⁻¹.
